Holding throughout (assay): BLI (Octet HTX)
The target of assay [1] is T1, Recombinant Human DLL3 Protein (amino acids Ala27-Ala479, cat #9749-DL, R&D Systems) (UniProt Q9NYJ7 27-479).
T1 chain: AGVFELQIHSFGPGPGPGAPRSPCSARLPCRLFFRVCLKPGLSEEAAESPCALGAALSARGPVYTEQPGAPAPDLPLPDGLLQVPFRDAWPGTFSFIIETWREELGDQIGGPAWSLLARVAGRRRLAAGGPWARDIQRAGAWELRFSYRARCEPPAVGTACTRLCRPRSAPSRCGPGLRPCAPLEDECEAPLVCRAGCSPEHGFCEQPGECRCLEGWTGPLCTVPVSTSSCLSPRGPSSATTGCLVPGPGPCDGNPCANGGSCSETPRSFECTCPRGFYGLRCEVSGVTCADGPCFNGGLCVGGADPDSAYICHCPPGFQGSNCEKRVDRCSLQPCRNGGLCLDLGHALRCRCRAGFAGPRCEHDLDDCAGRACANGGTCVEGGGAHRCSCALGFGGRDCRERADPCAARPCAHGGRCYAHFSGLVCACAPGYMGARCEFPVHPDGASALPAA

For assay [2], the target named is T1, Recombinant Human DLL3 Protein (amino …).
Assay [3] has the same target.

Where two headings read alike, the source gives them in different places.

B1: 7-I1-B (antibody, V domains shown)
VH: EVQLVESGGGLVKPGGSLRLSCAASGFTFSNTWMSWVRQAPGKGLEWVGRIKSKSDGGTTDYAAPVKGRFTISRDDSKNTLYLQMNSLKTEDTAVYYCTQYYWNSFDYWGQGTLVTVSS
VL: not shown
On to B1, for which the results for the dissociation constant (Kd) in assay [1] and in assay [2] were 0.68 nM and 0.686 nM, respectively.

B2: 2-C8-A (antibody, V domains shown)
VH: EVQLVESGGGLVQPGGSQRLSCAASGFTFSSYWMNWVRQAPGKGLEWVANIKEDGSEKYYVDSVKGRFTISRDNAKNSLYLQMNSLRAEDTAVYYCARDPGWAPFDYWGQGTLVTVSS
VL: DIQMSQSPSSLSASVGDRVTITCRASQGISNYLAWFQQKPGKAPKSLIYAASSLQSGVPSKFSGSGSGTDFTLAISSLQPEDFATYYCQQYNSFPYTFGQGTTLEIK
On to B2, for which the Kd in assay [1] and in assay [3] was 0.668 nM in each case.

B3: 6-G23-F (antibody, V domains shown)
VH: QVQLVQSGAEVKKPGASVKVSCKASGYTFTSYYIHWVRQAPGQGLEWMGIIDPSDGSTNYAQKFQGRVTMTRDTSTSTVYMELSSLRSEDTAVYYCARDREYNYYGLDVWGQGTTVTVSS
VL: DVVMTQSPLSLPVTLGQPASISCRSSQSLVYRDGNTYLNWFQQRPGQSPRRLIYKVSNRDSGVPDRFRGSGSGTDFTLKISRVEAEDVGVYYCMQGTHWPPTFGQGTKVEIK
Take B3: the Kd in assay [1] and in assay [2] was 0.16 nM throughout.

B4: 10-O18-A (antibody, V domains shown)
VH: QVQLQESGPGLVKPSETLSLTCTVSGGSINSYYWSWIRQPPGKGLEWIGYIFYSGITNYNPSLKSRVTISLDTSKNQFSLKLSSVTAADTAVYYCARIGVAGFYFDYWGQGTLVTVSS
VL: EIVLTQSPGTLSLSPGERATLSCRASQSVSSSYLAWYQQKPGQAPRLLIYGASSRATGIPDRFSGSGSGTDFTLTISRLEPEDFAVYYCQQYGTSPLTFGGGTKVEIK
As to B4, the Kd was 0.62 nM in assay [1] and 0.602 nM in assay [3].
